Laboratory results as given in the supplement of paper PMC12764529.
± gives the half width of the 95% confidence interval.

Key:
[1] = folding stability dG unfold (combined trypsin and chymotrypsin); higher = more stable
Procedure, shortened: (§1)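 Only designs with AlphaFold2 dimer inter-PAE above 15 were retained; each was a mini-protein under 80 residues with no cysteine, in a PA-tagged cDNA display construct. After digestion with trypsin and chymotrypsin and sequencing, K50 was inferred by Bayesian fitting of counts, and unfolding free energy was derived per protease or combined against a sequence-predicted unfolded-state K50 and a shared folded-state K50.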

[2] = folding stability dG unfold from chymotrypsin proteolysis; higher = more stable
Procedure, shortened: as §1

[3] = folding stability dG unfold from trypsin proteolysis; higher = more stable
Procedure, shortened: as §1

Row | Sequence | folding stability dG unfold [1] [kcal/mol] | folding stability dG unfold [2] [kcal/mol] | folding stability dG unfold [3] [kcal/mol]
1 | SAPEVEVFPGKDNSALVRVVFEFDGYRIEVVRRVPVEALKAGIPLEELPDVEILEVRVVKLPKPRPDELSAG [r14_856_TrMRF] | 2.58 ± 0.061 | 2.85 ± 0.029 | 2.17 ± 0.056
2 | SAPEVFRFTIPRYRDDYEFDGDGYPVLKERKPVAPLEVEAVVFEDGTVRVRVGDEVREFPLGVSPEELFSAG [r14_909_TrMRF] | 0.566 ± 0.1 | 0.355 ± 0.18 | 0.601 ± 0.22
3 | SAPFTATETVVTEEEDPATGLTRIPVEMTVDDHPVTGEGVRDPADPSRVSFSITFPDSDLTLTGEEPLPSAG [r14_178_JUSTAS] | 0.312 ± 0.048 | -0.0428 ± 0.11 | 0.491 ± 0.036
4 | SAPGLRTYTIYDPSGVRRTFPPSWDVTILEYDPKTGTVTLKITKHNTDPGAPVSTETEKRKATFLRDVESAG [r14_927_JUSTAS] | 0.725 ± 0.061 | 0.824 ± 0.12 | 0.575 ± 0.09
5 | SAPIDIDLERDPEPGRLKATVEFPWPNGWMHRMTFDLQWPRIKVEHYPFKDGEPEPQEIEIPIPANAKVSAG [r14_64_TrROS] | 0.338 ± 0.19 | 0.426 ± 0.24 | 0.0882 ± 0.17
6 | SAPIKIEIDVHQPPPGDYMIMVRIRPPGDGKEFPRMFPFPPDDAEKILENLLSQFPGYEIDDIEPMRYPSAG [r14_969_TrROS] | 1.29 ± 0.16 | 1.08 ± 0.15 | 1.26 ± 0.049
7 | SAPKRYYIKIEIYDNGKKQEITIPIGATIKNPGGKEYTYPVDSPEDLEEALNDLFPPGFPIKIDDVHPPSAG [r14_41_TrROS] | 0.973 ± 0.11 | 1.21 ± 0.17 | 0.517 ± 0.042
8 | SAPMKIVKKTDNTLYIYDKKTKKIVKITINDGTITVEEITYDKKTKEKKVETKTIKLSEEQLKKLKKLLSAG [r14_245_TrROS_Hall] | 1.23 ± 0.14 | 0.7 ± 0.24 | 1.54 ± 0.079
9 | SAPNIEIDYNKDNGMITIRLPGTGVEYMIPMPDGQLMAIDIEVKPDPDGKRKISIEIYFPDGKEHEFEISAG [r14_675_TrROS] | 2.3 ± 0.39 | 2.45 ± 0.17 | 2.19 ± 0.29
10 | SAPNYVLVIKIKSTNTPYYIPVPEDVEIVVKKNKNGEITAVVKVKDPETGEYFVITFSGDAKIDKIEPVPSA [r9_467_TrMRF] | 2.63 ± 0.19 | 2.93 ± 0.082 | 2.21 ± 0.1
11 | SAPPETVEVEEVAEFELADGSKVTVAKVKLPNGETLVVVTVYNKDGEPVATFVVREGDPDALAEALKALSSA [r9_1069_TrROS_Hall] | 4.51 ± 0.13 | 4.56 ± 0.095 | 3.9 ± 0.3
12 | SAPPNHRMVMYEIPIPPGMEIGDEIKLKIKVPGKEYPIKIDRIPNLPPGMRVRIMFNLDNGQFMIQILPSAG [r14_554_TrROS] | 2.77 ± 0.26 | 2.69 ± 0.062 | 2.52 ± 0.1
13 | SAPPTVKINWERVRRNGKRYYMIRVEITHPNNGKEREHTFMYDDPEDFLDNLLKLPNIDRVEIEDIYPMSAG [r14_464_TrROS] | 2.12 ± 0.51 | 1.8 ± 0.2 | 1.64 ± 0.27
14 | SAPWVYHVRIEYKGPDGEPVAEHTIMVKTPEALKEQIRKHFGLSPAQIKNIEVEPVIPAEEMNEMQEKGSAG [r14_852_TrROS] | 0.882 ± 0.094 | 1.27 ± 0.12 | 0.204 ± 0.13
15 | SARILRVEFEPFPLTERARLRLEVEDEDNDFPYEVDIELEVLPDPSEVRLRLVVRRPDGSRRELELRLFSAG [r14_10_TrMRF] | 4.23 ± 0.091 | 4.97 ± 0.091 | 3.56 ± 0.086
16 | SARVYRLPDGRLVRFEPVPPRPPVIVIPVDFRISPDDPETRRRLAEEIRRRLLEELGLPEDTPIFVDPSSAG [r14_453_TrMRF] | 4.16 ± 0.22 | 4.45 ± 0.14 | 4.11 ± 0.18
17 | SASAAEEIERALLPLPNIPTAPLATFTLPDAPVEVVSYDPVTGRVLVRLTGTGALFVFDPETGEAELLPSAG [r14_359_TrMRF] | 2.7 ± 0.34 | 2.62 ± 0.054 | 2.56 ± 0.16
18 | SASISVASPEEAEKIAKELKEKYGAKSVKIEPLPEPLVKVTIEFEVPLENGKTATRKIVLLFSSDGKEESAG [r14_420_TrMRF] | 2.44 ± 0.074 | 2.715 ± 0.016 | 1.87 ± 0.044

Row | Sequence | folding stability dG unfold [1] [kcal/mol] | folding stability dG unfold [2] [kcal/mol] | folding stability dG unfold [3] [kcal/mol]
19 | SASITIPVDELKDFAEHFPGFNVGVNPETGMFQIFFPENGWMINIDIEVDPDDPDTIEIDIEIYPMPPNSAG [r14_604_TrROS] | 2.57 ± 0.37 | 2.96 ± 0.15 | 1.78 ± 0.13
20 | SASKGSSMITVELTVTVPPSVSIEEVKKQFEEEFPKDAEIKVEATPVTVPANGTPVTTIKVTVTITKKESAG [r14_633_JUSTAS] | 1.56 ± 0.13 | 1.71 ± 0.11 | 1.27 ± 0.1
21 | SASKRFVFPVLGDEQTITVDVPEDYYVRITVFFPDGSEPILIPPNEKVTITVPRKDAFVVIEVFPKNEESAG [r14_882_TrMRF] | 2.48 ± 0.067 | 2.35 ± 0.025 | 2.59 ± 0.077
22 | SASLEPVATTAVPLPDGTTATLTLYRDPATGRYTVRVTVTHPDGAAETRVLEVDSEEEALSRVVLSPGASAG [r14_749_JUSTAS] | 3.12 ± 0.075 | 3.421 ± 0.018 | 2.38 ± 0.049
23 | SASLPPGQVRSLPVDVTIETPEGQPRFTEPATLEPPPRLVVDVALPLPPGEVTITIRLPGPGVTLTIERSAG [r14_280_JUSTAS] | 1.42 ± 0.37 | 1.53 ± 0.16 | 0.562 ± 0.089
24 | SASLTLTITLPDGAKITSITVEEVDGELVLTEITVETTNENGEKTTVTRTIVLKLPPAPPAHPDDPALKSAG [r14_95_TrROS_Hall] | 2.45 ± 0.15 | 2.63 ± 0.12 | 2.13 ± 0.13
25 | SASMTLTIPLPLKPGDRVVVEATHPLGYGFETEELPDGSVRLTLTVPTPDAPPATLHIRVYEPNTGKLASAG [r14_39_TrMRF] | 2.85 ± 0.1 | 3.24 ± 0.056 | 2.28 ± 0.051
26 | SASMTYTVTVTVSVKNPDGTPIGTIPITRTMNLDEAKVIVEKEIKKTVDELFPGKPANVTVDTTVTPLPSAG [r14_570_JUSTAS] | 0.899 ± 0.27 | 1.6 ± 0.42 | 0.482 ± 0.13
27 | SASPWIQKLAEEIADELAKENGWEEVKFTVTLPIRMPMYRYDPNGKKEPHDMWMWIKFEVTARVPPGDPSAG [r14_232_TrROS] | 2.14 ± 0.24 | 2.01 ± 0.18 | 2.28 ± 0.061
28 | SASSMSLSFSVSLETDPEKGLLSTVTTTSTVTPYPDSVVTTTTVTTTVTPVPPGPPVVSPSATPVVALSSAG [r14_435_JUSTAS] | 1.13 ± 0.051 | 0.593 ± 0.098 | 1.47 ± 0.04
29 | SASSSSSSYNVTIDPATGTVTVTNPDGSTTTVPPGSTLTVTSTSSDGGSALGSSTPSTSTTTIPVPAGTSAG [r14_366_JUSTAS] | 0.919 ± 0.071 | 0.699 ± 0.091 | 1.05 ± 0.05
30 | SATAVVIKAEVIFPNNEKKEISVVIENLTEEEVEELAEELEKKIKEEAGIPDIEVKIKVETFAKDDPAFSAG [r14_207_TrMRF] | 1.04 ± 0.3 | 1.01 ± 0.09 | 0.438 ± 0.16
31 | SATFTLPDGREVEVVSVEYDPETNTVTVLVRDRETGELYVFTFERLPDGEWRIVSRERVRVEPGETVLVSAG [r14_13_TrROS_Hall] | 2.94 ± 0.07 | 3.235 ± 0.022 | 2.02 ± 0.025
32 | SATGKLAELLEEAFPDRPIASAEILGVEPLPDGRPALRFLLTFEDGSKLVVTVTSADHPEVLEAARENQSAG [r14_143_TrMRF] | 2.96 ± 0.041 | 2.913 ± 0.014 | 3.04 ± 0.064
33 | SAVVSVDPATGVVTAKVKVDDTELTVTITRDPATGAWPVTFTPPGSGTPVVLDVPFTSVEEAIELAKRLSAG [r14_803_JUSTAS] | 1.59 ± 0.05 | 1.56 ± 0.036 | 1.54 ± 0.02
34 | SAWKIEIKEVKRNPDGWYEITITIPFPGDPNMPVDELADEILQEFGIKDVTVEPNPDNGWIEITIRIPRSAG [r14_228_TrROS] | 2.48 ± 0.19 | 2.53 ± 0.057 | 2.45 ± 0.067
35 | SAWVIPFEVRLPGSPEQARRQVEEWADNIANRYQQNGFRVVDIKIDEIEPDNVRVRLTIQIVPPGQEIPSAG [r14_973_TrROS] | 2.66 ± 0.14 | 2.52 ± 0.054 | 2.74 ± 0.08
36 | SAYIQIERDPDGYIKIEVWFDSPDEGKEFVKEFVKELADQGLDIKIKVTKIEPYPGDPNMYRVSYTIKVSAG [r14_119_TrROS] | 3.52 ± 0.083 | 3.857 ± 0.038 | 2.76 ± 0.098
